Laboratory results: patent US20150273076A1, “SP1 POLYPEPTIDES, MODIFIED SP1 POLYPEPTIDES AND USES THEREOF” (Fulcrum SP Ltd., priority 2006, published 2015)

Columns and labels:
[1] = Heat stability (no precipitation after heat treatment); conditions: 10 min at 100° C. or 30 min at 85° C.
[2] = Protein melting point by DSC; format: physicochemical
Procedure: Differential scanning calorimetry study of SP1 indicates in a Tm of 107° C. for SP1. […] Further, folding and refolding of inclusion bodies including insoluble SP1, and the heat stability of the unfolded proteins indicate that the intact monomer, as well as the oligomer, is heat resistant (FIG. 5).

proteinase K or alkalase = assay: Protease resistance by SDS PAGE; format: physicochemical; conditions: V8 protease, similar with trypsin, subtilysine
Procedure: Protease Susceptibility Examination of SP1—SP1 (10 μg) prepared either in V8 protease digestion buffer (125 mM Tris-HCl, pH 6.8, 10% glycerol, 0.5% SDS) or standard buffer (20 mM Tris-HCl, pH 7.5, 1 mM EDTA, 50 mM NaCl), was boiled for 2 min or not boiled prior the addition of protease (Staphylococcus aureus V8 protease, trypsin, proteinase K, Sigma Chemicals Inc., Israel). Proteases were added to a final concentration of 50 μg/ml (SP1: protease equal to 1:20, w/w). The digestion was performed at 37° C. for 1 hr. The samples were then prepared in SDS sample buffer, and boiled or not before being subjected to 17% tricine-SDS-PAGE.
SP1 is vulnerable to V8 protease or subtilysine (alcalase, Novo Industries) digestion when disassociated to its monomeric form (boiled in 0.5% SDS, or dissolved inclusion bodies). […] When the oligomer-protease mixture was further boiled in SDS sample buffer, only the SP1 monomer was observed and no peptide fragment was detected on the gel. When the same mixture was subjected to SDS-PAGE analysis without boiling, an intact complex was observed. […] Thus, whereas properly folded SP1 protein is protease resistance, unfolded protein, susceptible to protease, can be removed by protease and heat treatment (FIG. 5).

[3] = Repetitive iv injections of SP1: toxicity, liver histopathology; format: in vivo
Procedure: 35 mg/Kg SP1 or PBS control were injected iv (tail vein) to C57B1 mail mice on days 0, 9, 16, 23, 37 and 53 (6 and 5 animals in the SP1 and PBS groups, respectively). 55 days past the first injection the animals were sacrificed and their livers were subjected to histopathology analysis.

[4] = Fluorescein-amine complex formation (ultrafiltration, size exclusion HPLC); format: binding
Procedure: FIG. 9 is a histogram showing redox-dependent complex formation with small molecules by Cys2 SP1. Pure Cys 2 mutant (1.5 mg/ml in Phosphate buffered saline, pH=7.5 (PBS)) was incubated for 2 hours at room temp, with I mM fluorescein-amine with or without glutathione (reduced form, GSH 3 mM). Binding reaction was stopped by adding hydrogen peroxide (0.01%), followed by ultra filtration (using a 30 kD cutoff filter) and extensive wash. Absorption analysis was conducted at both 278 and 492 nm, and the results expressed as the 492/278 ratio. Note that in the absence of the reducing agent (GSH), retention of the flourescein-amine is negligible;
FIG. 10 is a graphic representation of the redox-dependent fluorescein amine complex formation by Cys2 SP1, compared to the recombinant SP1. Fluorescein-amine was incubated with pure SP1 or Cys2 SP1 mutant (1.5 mg/ml in PBS pH=7.5) in the absence or presence of DTT (10 mM). Binding reaction was stopped by adding hydrogen peroxide (0.01%), followed by ultra filtration (using 30 kD cutoff filter) and extensive wash. Samples were analyzed by Gel filtration HPLC, and detected at both 228 and 490 nm. Calculated data is shown on the right.
FIG. 11 is a histogram illustrating the concentration dependent complex formation with fluorescein-amine by Cys2 SP1. Huorescien-amine (10, 33, 100 or 333 mM) was incubated with Cys 2 SP1 or pure wild type SP1 in the presence of 10 mM DTT, and the bound and unbound fractions analyzed by ultra-filtration and HPLC as in FIG. 10.
Ultrafiltration was used for the detection of complex formation with the water soluble ligands FA and DOX which have a distinctive absorption properties and can be determined by spectroscopic measurements. […] Several additional washing cycles remove all remaining free FA and DOX, and the ligand-SP1 complex remains in the retained fraction.
Size exclusion chromatography is a common method for separation of molecules of different sizes under mild conditions and was employed to test FA and DOX complex formation under mild conditions. SP1 is eluted from the column after 7 min and is detected at 278 nm only, and free FA is eluted from the column (TSK G3000 SWXL, Tosohaas) after 16 min and is detected at 490 nm. The SP1-FA and SP1-DOX complexes also eluted at the same time but is detected also at 490 and 475 nm, respectively. DOX/SP1 ratio is determine from the standard curve obtained in solution.
5. Can complexed ligand be stabilized by association with the Cys2 SP1? Fluoresceine amine (FA): FA absorption peak is at 490 nm and at much lower extend at 278 nm (for a given FA concentration OD278/OD490=0.19)(see FIG. 31), when SP1 absorption peak is at 278 nm (see FIG. 30), and it is not detected at 490 nm. […] FA complexing with the Cys2 Sp1 variant was determined following incubation of FA and Cys2 SP1 variant in the absence or presence of GSH, followed by protein oxidation, ultra filtration (30 kDa cutoff) and exhaustive wash of the retained fraction with PBS with or without GSH. Absorption analysis at both 278 and 490 nm.

For “wild type: stress related SP1 protein from aspen (Populus tremula), recombinant, SEQ ID NO:1”, the Heat stability [1] was “+”, the Tm ([2]; Differential scanning calorimetry) was 107 °C and the Tm ([2]; protein melting point by DSC, in °C (unit assumed)) was 107. The “digestion of the intact oligomer by protease” value (proteinase K or alkalase) was “unable to digest the intact oligomer”, the “animals without any pathological response” value ([3]; 35 mg/Kg iv on days 0, 9, 16, 23, 37 and 53, up to 55 days) was “Four out of six” and the liver histopathology ([3]; 55 days past the first injection) was “appeared normal”. For the same substance, the animals died ([3]; after 17 days, unknown reason) was “Two out of 6”, the “FA complexing at low ligand concentration” value ([4]; 10 μM FA, 10 mM DTT) was “no discernable FA complexing” and the “complex formation with the FA marker” value ([4]; presence or absence of reducing agents, size exclusion chromatography) was “hardly forms complexes”.
